Sequences and labels used below:
B1: Pistol ribozyme (parent)
chain: GGGUCGUUGUUCCAUAAUCGCGUGGAUAUGGCACGCAAGUUUCUACCGGGCACCGUAAAUGUCCGACUGGAGCCGUUCGGGCGGCUAUAAACAGACCUCAGGCCCGAAGCGUGGCGGCACCUGCCGCCGGUGGUAAAAAAGAUCGGAAGAGCACACGUCU

Variants of B1 are the subject of the data set. The experiment in a line: aptazyme ON/OFF ratio, guanine; higher = stronger switching; co-transcriptional cleavage with and without guanine.
For the variant U7C U8C G9A U10C U11A C13U, the “aptazyme ON/OFF ratio” value was 1.45.
Next, U7C U8C G9A U10C U11A C13A: 1.41; U7C U8C G9A U10C U11A C13G: 1.04; U7C U8C G9A: 1.59.
With U7C U8C G9C, the “aptazyme ON/OFF ratio” value was found to be 1.13.
Next, U7C U8C G9A C12U C13A: 1.27; U7C U8C G9A C12U C13U: 1.26.
The same measure for U7C U8C G9A C12U C13G: 1.27; for U7C U8C C13G: 1.17.
Take U7C U8C C13A: the “aptazyme ON/OFF ratio” value was determined as 1.21.
Next, U7C U8C C13U: 1.56.
Next, U7C U8C G9A U10C U11A C12A C13U: 1.18.
The same measure for U7C U8C G9A U10C U11A C12A C13A: 1.18.
For U7C U8C G9A U10C U11A C12A C13G, the “aptazyme ON/OFF ratio” value came out at 1.4.
The same measure for U7C U8C G9A U10A U11C C12A: 1.37; for U7C U8C G9A U10A U11C C12U: 1.2.
As for U7C U8C G9A U10A U11C C12G, the “aptazyme ON/OFF ratio” value amounted to 1.23.
For the variant U7C U8C G9A U10C U11G C13U, the “aptazyme ON/OFF ratio” value was found to be 1.32.
Next, U7C U8C G9A U10C U11G C13G: 1.15; U7C U8C G9A U10C U11G C13A: 1.11; U7C U8C G9C C13U: 1.05.
The same measure for U7C U8C G9C C13A: 1.09; for U7C U8C G9C C13G: 1.09; for U7C U8C G9A C12G: 1.41.
The same measure for U7C U8C G9A C12U: 1.72.
As for U7C U8C G9A C12A, the “aptazyme ON/OFF ratio” value stood at 1.51.
The same measure for U7C U8C G9A U10A C13A: 1.15; for U7C U8C G9A U10A C13G: 1.1.
On to U7C U8C G9A U10A C13U, for which the “aptazyme ON/OFF ratio” value worked out at 2.14.
Next, U7C U8C G9A U11C C13A: 1.22; U7C U8C G9A U11C C13U: 1.29; U7C U8C G9A U11C C13G: 1.05.
Next, U7C U8C G9A U10A C12A: 1.44; U7C U8C G9A U10A C12G: 1.39.
Next, U7C U8C G9A U10A C12U: 1.69; U7C U8C G9A U11A C13G: 1.13; U7C U8C G9A U11A C13U: 1.32.
For U7C U8C G9A U11A C13A, the “aptazyme ON/OFF ratio” value amounted to 1.26.
Regarding U7C U8C G9A U10A U11C C12A C13G, the “aptazyme ON/OFF ratio” value was 1.18.
U7C U8C G9A U10A U11C C12A C13U: the “aptazyme ON/OFF ratio” value came to 1.31.
Next, U7C U8C G9A U10A U11C C12A C13A: 1.17.
Turning to U7C U8C G9C C12A C13U, the “aptazyme ON/OFF ratio” value was 1.13.
The same measure for U7C U8C G9C C12A C13G: 1.06; for U7C U8C G9C C12A C13A: 1.08.
Next, U7C U8C G9A U10C U11A C12U C13A: 1.21; U7C U8C G9A U10C U11A C12U C13G: 1.27; U7C U8C G9A U10C U11A C12U C13U: 1.3.
Next, U7C U8C G9A U10A U11G C13A: 1.21; U7C U8C G9A U10A U11G C13U: 1.21; U7C U8C G9A U10A U11G C13G: 1.19.
As for U7C U8C G9A U10C U11C C12G C13G, the “aptazyme ON/OFF ratio” value is 1.24.
Next, U7C U8C G9A U10C U11C C12G C13U: 1.29; U7C U8C G9A U10C U11C C12G C13A: 1.5.
Next, U7C U8C G9A U10G U11A C13G: 1.25; U7C U8C G9A U10G U11A C13U: 1.07; U7C U8C G9A U10G U11A C13A: 1.1.
In the case of U7C U8C G9A U10C U11C C12U C13U, the “aptazyme ON/OFF ratio” value came out at 1.32.
For U7C U8C G9A U10C U11C C12U C13A, the “aptazyme ON/OFF ratio” value turned out to be 1.2.
Next, U7C U8C G9A U10C U11C C12U C13G: 1.24; U7C U8C C12U: 1.75.
The same measure for U7C U8C C12G: 1.18; for U7C U8C C12A: 1.37; for U7C U8C G9A U11G C12A C13U: 1.59.
Next, U7C U8C G9A U11G C12A C13G: 1.25; U7C U8C G9A U11G C12A C13A: 1.3.
For U7C U8C G9A U11C C12A C13G, the “aptazyme ON/OFF ratio” value was found to be 1.19.
Turning to U7C U8C G9A U11C C12A C13U, the “aptazyme ON/OFF ratio” value was found to be 1.38.
Next, U7C U8C G9A U11C C12A C13A: 1.29; U7C U8C G9A U10A U11A: 3.49.
The same measure for U7C U8C G9A U10A U11G: 1.55; for U7C U8C G9A U10A U11C: 1.21; for U7C U8C G9A U10C C12G C13A: 1.28.
As for U7C U8C G9A U10C C12G C13U, the “aptazyme ON/OFF ratio” value turned out to be 1.11.
Next, U7C U8C G9A U10C C12G C13G: 1.21.
Take U7C U8C G9A U10A U11C C13U: the “aptazyme ON/OFF ratio” value was found to be 1.11.
The same measure for U7C U8C G9A U10A U11C C13G: 1.04; for U7C U8C G9A U10A U11C C13A: 1.16.
For U7C U8C G9A U10C U11C C12U, the “aptazyme ON/OFF ratio” value came out at 1.41.
The same measure for U7C U8C G9A U10C U11C C12A: 1.25; for U7C U8C G9A U10C U11C C12G: 1.19; for U7C U8C C12A C13G: 1.1.
The same measure for U7C U8C C12A C13A: 1.23; for U7C U8C C12A C13U: 1.34; for U7C U8C G9A U10A U11C C12G C13A: 1.4.

Source of the values: the RNAGym collection of RNA variant scans (doi:10.1021/acssynbio.7b00057).
